Test results published in PMC11784022, “An unusual activity of mycobacterial MutT1 Nudix hydrolase domain as a protein phosphatase regulates nucleoside diphosphate kinase function” (Journal of Bacteriology, 2024).

Target: the molecule itself
Assay: SDS-PAGE of samples not heated in sample buffer; MsmNDK-Pi (1 µg) in kinase buffer (50 mM Tris-HCl pH 8.0, 50 mM KCl, 10 mM MgCl2), 30°C, mixed with SDS-PAGE sample buffer without heating, 12% SDS-PAGE, Coomassie stain

B1: Mycobacterium smegmatis nucleoside diphosphate kinase (MsmNDK) (enzyme, Mycobacterium smegmatis mc2155, UniProt O85501 1-139, looked up)
chain: MTERTLVLIKPDGVKRQLVGEILSRIERKGLTLAALELKNVSDDLARQHYAEHADKPFFGSLLEFITSGPLVAAIVEGPRAVAAFRQIAGGTDPVEKAVPGTIRGDFALITQDNLVHGSDSPESAAREIALWFPGEATA
notes: Nucleoside diphosphate kinase of Mycobacterium smegmatis mc2155, locus MSMEG_4627; ORF amplified from genomic DNA and cloned into pProEx-Htb between NcoI and HindIII; also called MsmNDK-Pi; source: E. coli M15, purified (Ni-NTA, Superdex-75)
**Q.** Does B1 bind?
**A.** Result: binds
